Results published in US20200277373A1, “ANTI-TREM2 ANTIBODIES AND METHODS OF USE THEREOF” (Denali Therapeutics Inc., priority 2017, published 2020).

Legend:
TREM2 [1] = target: T1, TREM2 (Homo sapiens, UniProt Q9NZC2); assay: TREM2 pSyk antagonist assay on human macrophages (antibody pre-incubation, then liposomes); format: cell-based; conditions: FIGS. 9C-9D, 30 nM antibody
T1 construct: macrophage cells that endogenously express TREM2; endogenous in cells; host or cells: primary human monocyte-derived macrophages from donor blood
T1 sequence (Q9NZC2 19-230): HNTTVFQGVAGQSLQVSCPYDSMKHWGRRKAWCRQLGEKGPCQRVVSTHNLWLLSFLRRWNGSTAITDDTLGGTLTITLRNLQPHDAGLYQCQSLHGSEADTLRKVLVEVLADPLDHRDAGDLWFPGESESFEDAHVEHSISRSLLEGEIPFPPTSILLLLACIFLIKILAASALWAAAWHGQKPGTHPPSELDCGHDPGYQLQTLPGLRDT
Description: Human macrophages were differentiated from donor blood using a human monocyte enrichment cocktail (Stem Cell Technologies) and culturing monocytes with human mCSF for five days in macrophage media (RPMI+10% Hyclone FBS+Glutamax+Pen/Strep+non-essential amino acids+sodium pyruvate). On the fifth day, the human macrophages were scraped from the flasks and were re-plated at 100,000 cells/well on a 96-well poly-D-lysine-coated plate in the macrophage media (without mCSF). The cells were incubated for 24 hours to adhere, then the media was removed.
Antibodies diluted in RPMI alone were immediately added to the cells, and allowed to incubate for 30 minutes at 37° C. The antibodies were then removed. Lipid vesicles comprised of 70% DOPC and 30% POPS (made according to the procedure for making vesicles described above) in HBSS were added to the cells and incubated […] at 37° C. The liposome/antibody solution was removed, and 35 μL lysis buffer (Cell Signaling Technologies, CST) was added using the liquid handler. The lysate was then incubated at 4° C. for 30 minutes, then either frozen at −80° C. or immediately carried forward to a pSyk AlphaLISA assay as described above.

soluble TREM2 (sTREM2) = target: T2, soluble TREM2 (sTREM2) (Homo sapiens, UniProt Q9NZC2); assay: Soluble TREM2 (TREM2 shedding) assay in HEK293 TREM2/DAP12 cells; format: cell-based; set-up: key to STREM2: NC = no change; −− = reduced sTREM2; ++ = increased sTREM2; conditions: change in sTREM2 levels
T2 construct: expressed in transfected cells
T2 sequence (O43914 22-113 partner, one chain of several): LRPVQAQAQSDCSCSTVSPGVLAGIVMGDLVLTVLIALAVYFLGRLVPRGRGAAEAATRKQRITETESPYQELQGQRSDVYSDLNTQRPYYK
Description: HEK293 cells stably expressing human TREM2 and DAP12 were plated onto 96-well plates pre-coated with poly-D-lysine 4-16 hours prior to antibody treatment. Antibody supernatants or control antibodies were diluted into fresh complete media and added onto cells in triplicate. Cells were incubated with antibody containing media for 18 hours prior to removal of the cell supernatant for assay by TREM2 ELISA. Samples and standards were diluted 1:10 into blocking buffer (3% BSA/TBST) in the assay plate. Briefly, MSD small spot streptavidin plates were coated with biotinylated anti-hTREM2 polyclonal antibody (R&D Systems) overnight at 4° C. or 1 hour at room temperature. Plates were then blocked overnight at 4° C., or 1 hour at room temperature, with blocking buffer, 3% BSA/TBST. Plates were washed three times with TBST in a Biotek plate washer (used for all washes) prior to addition of diluent (blocking buffer) and denatured supernatants from cell culture. A TREM2-His protein diluted in 3% BSA/TBST was used as a standard for absolute quantification. Following 1 hour incubation at room temperature, plates were washed with TBST. The primary detection antibody, sulfo-tagged goat anti-human TREM2 (R&D Systems), diluted in 3% BSA/TBST was added and incubated for 1 hour at room temperature. After washing with TBST, MSD plates were developed using 2×MSD read buffer T, followed by detection using an MSD Sector plate reader. MSD values were converted to absolute quantities of sTREM2 by fitting a standard curve using Prism 7.0 software (Graphpad). Modulation of TREM2 shedding was represented as a ratio to cells cultured with no specific TREM2 antibody in the media.

hTREM2 [2] = target: T3, hTREM2 (Homo sapiens, UniProt Q9NZC2); assay: Octet binning (competition with R&D antibody on biotinylated TREM2-His); format: binding; conditions: epitope bin, 100 nM
T3 construct: The ecto domain (residues 19-172) of TREM2 (UniProtKB—Q9NZC2); secretion signal of mouse Ig kappa chain V-III (P01661 aa 1-20) (N); made in house; host or cells: Expi293F
T3 sequence (Q9NZC2 19-172): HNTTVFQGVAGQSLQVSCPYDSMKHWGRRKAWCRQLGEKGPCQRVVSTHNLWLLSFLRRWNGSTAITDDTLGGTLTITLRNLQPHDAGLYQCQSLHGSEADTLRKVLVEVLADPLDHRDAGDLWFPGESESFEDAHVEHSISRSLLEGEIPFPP
Description: Competition with R&D antibody was done by Octet Red using biotinylated human Trem2-His protein generated in house. Biotinylated human TREM2-His protein was captured on a streptavidin tip, and the tip was then incubated in either 100 nM of R&D Ab or buffer for 3 minutes, followed by incubation for 3 minutes in 100 nM of testing hybridoma. The difference of hybridoma binding curve with or without pre-binding to R&D antibody was analyzed to determine the epitope.

TREM2 [3] = target: T4, TREM2 (Homo sapiens, UniProt Q9NZC2); assay: FACS binning on human TREM2-HEK cells (competition with R&D antibody); format: binding; conditions: epitope bin, 100 nM antibody
T4 construct: expressed in transfected cells
Description: HEK293 overexpressing human TREM2 (H6) were harvested by 0.05% trypsin and incubated at 37° C. incubator for 2 hours for surface TREM2 recovery. After incubation, cells were washed with 1×PBS and FACS buffer (PBS+0.5% BSA) with human Trustain FcX solution (Biolegend, Cat #422302) was added at a density of 10^6/mL. Cells were seeded at 100,000 cells per well in a 96-well round-bottom and incubated 20 minutes at room temperature. After incubation, anti-TREM2 antibodies (100 nM) were added to the cells and the cells were incubated for 45 minutes on ice. After incubation, rat anti-h/mTREM2-APC antibody (1:100, R&D, Cat # FAB17291A) was added to the cells, and the cells were incubated for 30 minutes on ice. After incubation, cells were washed with FACS buffer three times and resuspended in 10 μL FACS buffer, then analyzed by flow cytometry (BD FACSCanto II, San Jose, Calif.). 20,000 events were obtained for each sample. The ability to compete with R&D antibody was determined by MFI analysis compared to isotype or buffer control wells.
T4 sequence (O43914 22-113 partner, one chain of several): as the sequence (O43914 22-113 partner, one chain of several) above

human macrophages [4] = assay: Cell survival assay, human monocyte-derived macrophages, restricted or no M-CSF, CellTiter Glo; format: cell-based; conditions: plate coated antibody, 5 ng/mL or no M-CSF, day 6
Description: TREM2 can support microglia energy homeostasis (Ulland et al., Cell, 2017, 170:649-663). […] To understand if enhancing TREM2 activity with TREM2 agonistic antibodies is sufficient for macrophage/microglia survival under limited M-CSF conditions, human macrophage differentiation and survival studies were performed using antibodies as described herein. Human monocytes isolated from peripheral blood were incubated with 5 ng/mL M-CSF in the presence of titrated concentrations of plate coated TREM2 antibodies or isotype controls. On day 6 cell viability was determined by CellTiter Glo viability assay.

human macrophages [5] = assay: Signaling pathway Alpha-LISA (pSYK, pERK1/2, pGSK3-beta, pAKT) in human macrophages; format: cell-based; conditions: 15 minutes
Description: Anti-TREM2 antibodies were characterized for activation of several signaling pathways, SYK, ERK1/2, AKT and GSK3-beta. Human macrophages differentiated from peripheral monocytes were plated in 96-well plates at a density of 100,000 cell/well. The assay was tested in three conditions (0%, 0.5%, and 10% FBS in the media) for 3 hours. Cells were stimulated with the antibody RS9.F6, 24B4.A1, 8A11.B1, 3D3.A1, 54C2.A1, isotype control IgG2ak, rat anti-TREM2 from R&D, isotype control rat IgG2b, or no treatment (NT) for 15 minutes. The cell lysates were measured for p-Y525/526-SYK, p-T202/Y204-ERK1/2, p-S9-GSK3-beta, and p-S473-AKT using Alpha-LISA kits (Perkin Elmer). […] The antibodies stimulated p-GSK signal moderately (FIG. 6C).

hTfR apical domain = assay: Biacore T200 binding kinetics to hTfR apical domain; set-up: species or system human; conditions: analyte hTfR apical domain
Description: (§1) The binding of the TREM2/TfR-binding protein RS9.F6/3C35.21.17 to TREM2 and TfR was measured using SPR on a Biacore T200 instrument. To measure TfR binding, anti-human-Fab was immobilized on a CM5 chip, and the TREM2/TfR-binding protein was captured. Full-length human TfR or human TfR apical domain at serial dilution (e.g., concentrations of 1-1000 nM) was flowed over the chip (180 second association time) and then allowed to dissociate. Fitting was performed using a 1:1 binding model. To measure TREM2 binding, anti-human-Fc antibody was immobilized on a CM5 chip, and the TREM2/TfR-binding protein was captured. A range of concentrations of recombinant TREM2-His protein were flowed over the chip, and allowed to associate and dissociate. The resulting sensograms were fitted using a 1:1 Langmuir model to estimate kon and koff (FIG. 10).
The affinities of RS9.F6/3C35.21.17 for human TREM2 and TfR were determined by surface plasmon resonance using a Biacore™ T200. Biacore Series S CM5 sensor chips were immobilized with a mixture of two monoclonal mouse anti-Fab antibodies (Human Fab capture kit from GE Healthcare). Serial 3-fold dilutions of each antigen were injected at a flow rate of 30 μL/min. The binding of the antigens to captured antibody was monitored for 30 to 180 seconds and then their dissociation was monitored for 30-300 seconds in HBS-EP+running buffer (GE, # BR100669). […]

hTREM2 [6] = target: T3, hTREM2; assay: Biacore T200 binding kinetics to hTREM2; conditions: analyte hTREM2
Description: as §1
The affinities of RS9.F6/3C35.21.17 for human TREM2 and TfR were determined by surface plasmon resonance using a Biacore™ T200. Biacore Series S CM5 sensor chips were immobilized with a mixture of two monoclonal mouse anti-Fab antibodies (Human Fab capture kit from GE Healthcare). Serial 3-fold dilutions of each antigen were injected at a flow rate of 30 μL/min. The binding of the antigens to captured antibody was monitored for 30 to 180 seconds and then their dissociation was monitored for 30-300 seconds in HBS-EP+running buffer (GE, # BR100669). Binding response was corrected by subtracting the RU from a blank flow cell. A 1:1 Languir model of simultaneous fitting of kon and koff was used for kinetics analysis.

Molecule | liposome mediated pSyk signaling after antibody pre-incubation (TREM2 [1]) | STREM2 (soluble TREM2 (sTREM2)) | Bin by Octet (hTREM2 [2]) | Bin by FACS (TREM2 [3]) | survival of human macrophages (human macrophages [4]) | p-SYK signal (human macrophages [5]) | pERK1/2 signal (human macrophages [5]) | ka (hTfR apical domain) | kd (hTfR apical domain) | ka (hTREM2 [6]) | kd (hTREM2 [6])
54C2.A1: anti-TREM2 antibody clone; VH SEQ ID NO:22, VL SEQ ID NO:33 (antibody, V domains shown) VH: QVHLQQSGSELRSPGSSVKLSCKDFDSEVFPIAYMSWVRQKPGHGFEWIGDILPSIGRRIYGVKFEDKATLDADTVSNTAYLELNSLTSEDSAIYYCTRKDYGSLAYWGQGTLVTVSA VL: DVVMTQTPLSLPVSLGDQASISCRSSQSLVHINGNTYLQWYLQKPGQSPKLLIYKVSNRFSGVPDRFSGSGSGTDFTLRISRVEAEDLGVYFCSQSTHLPYTFGGGTKLEIK | enhanced | NC | 1 | 1 | increased the survival | robust | robust |  |  |  | 
RS9.F6/3C35.21.17_LALAPG: TREM2/TfR-binding protein: RS9.F6 Fabs on TfR-binding knob Fc and hole Fc; SEQ ID NOs:35, 91, 92 (protein) light: DVVMTQTPLSLPVSLGDQASISCRSSQSLVHNNGNTFLHWYLQKPGQSPKLLIYKVSNRFSGVPDRFSGSGSGTDFTLKISRVEAEDLGVYFCSQTTHVPPTFGGGTKLEIK heavy 1: QVQLQQPGAELVKPGASVKLSCKASGYTFTSYWMHWVKQSPGRGLEWIGRSDPTTGGTNYNEKFKTKATLTVDKPSSTAYMQLSSLTSDDSAVYYCVRTSGTGDYWGQGTSLTVSSASTKGPSVFPLAPSSKSTSGGTAALGCLVKDYFPEPVTVSWNSGALTSGVHTFPAVLQSSGLYSLSSVVTVPSSSLGTQTYICNVNHKPSNTKVDKKVEPKSCDKTHTCPPCPAPEAAGGPSVFLFPPKPKDTLMISRTPEVTCVVVDVSHEDPEVKFNWYVDGVEVHNAKTKPREEQYNSTYRVVSVLTVLHQDWLNGKEYKCKVSNKALGAPIEKTISKAKGQPREPQVYTLPPSRDELTKNQVSLWCLVKGFYPSDIAVLWESYGTEWASYKTTPPVLDSDGSFFLYSKLTVTKEEWQQGFVFSCSVMHEALHNHYTQKSLSLSPGK heavy 2: QVQLQQPGAELVKPGASVKLSCKASGYTFTSYWMHWVKQSPGRGLEWIGRSDPTTGGTNYNEKFKTKATLTVDKPSSTAYMQLSSLTSDDSAVYYCVRTSGTGDYWGQGTSLTVSSASTKGPSVFPLAPSSKSTSGGTAALGCLVKDYFPEPVTVSWNSGALTSGVHTFPAVLQSSGLYSLSSVVTVPSSSLGTQTYICNVNHKPSNTKVDKKVEPKSCDKTHTCPPCPAPEAAGGPSVFLFPPKPKDTLMISRTPEVTCVVVDVSHEDPEVKFNWYVDGVEVHNAKTKPREEQYNSTYRVVSVLTVLHQDWLNGKEYKCKVSNKALGAPIEKTISKAKGQPREPQVYTLPPSRDELTKNQVSLSCAVKGFYPSDIAVEWESNGQPENNYKTTPPVLDSDGSFFLVSKLTVDKSRWQQGNVFSCSVMHEALHNHYTQKSLSLSPGK |  |  |  |  |  |  |  | 1.7e+06 M⁻¹ s⁻¹ | 0.19 s⁻¹ | 150000 M⁻¹ s⁻¹ | 0.00038 s⁻¹
